Test results taken from PMC4928127, “Determination of GLUT1 Oligomerization Parameters using Bioluminescent Förster Resonance Energy Transfer” (Scientific Reports, 2016).

Target: T1, Nluc-GLUT1 (mouse, UniProt P17809 1-492)
T1 construct: facilitated glucose transporter GLUT1 (SLC2A1), mouse Glut1 open reading frame; BRET donor; also called GLUT1 fused to Nluc at the N-terminus; not shown: Nanoluciferase (Nluc), N-terminal, kept
T1 sequence (looked up): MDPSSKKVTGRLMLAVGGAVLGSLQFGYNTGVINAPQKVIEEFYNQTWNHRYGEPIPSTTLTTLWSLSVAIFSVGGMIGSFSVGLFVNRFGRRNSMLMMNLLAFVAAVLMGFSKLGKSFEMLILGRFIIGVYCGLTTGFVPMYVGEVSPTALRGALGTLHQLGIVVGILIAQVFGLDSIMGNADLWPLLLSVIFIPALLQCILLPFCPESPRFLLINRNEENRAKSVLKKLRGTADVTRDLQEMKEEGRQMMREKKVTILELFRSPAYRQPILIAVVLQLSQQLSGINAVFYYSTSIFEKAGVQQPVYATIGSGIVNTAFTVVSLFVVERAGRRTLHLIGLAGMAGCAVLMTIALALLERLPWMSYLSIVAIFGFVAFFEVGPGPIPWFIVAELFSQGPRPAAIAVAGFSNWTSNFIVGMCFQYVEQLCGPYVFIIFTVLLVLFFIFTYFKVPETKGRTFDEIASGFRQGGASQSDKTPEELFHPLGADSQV
Experiment: FRET or BRET; stable polyclonal 293FT/dox^GB1 cells: constitutive Nluc-GLUT1, mCherry-GLUT1 induced 48 hours with a 2-fold serial dilution of doxycycline; corrected BRET against doxycycline and against mCherry-GLUT1 level relative to endogenous GLUT1 by immunoblot
Conditions: partners not purified

doxycycline concentration at which ~50% of mCherry-GLUT1 is in multimeric complexes (doxycycline EC50 of BRET): 4.69 ng/mL
B1: mCherry-GLUT1 (natural protein, mouse, UniProt P17809 1-492, looked up)
chain: T1 sequence (looked up)
notes: facilitated glucose transporter GLUT1 (SLC2A1), mouse Glut1 open reading frame; BRET acceptor; also called GLUT1 fused to mCherry at the N-terminus; not shown: mCherry, N-terminal, kept
